This experiment deals with T1, MBP-human TRIM25-Flag (human, UniProt Q14258 1-630).
T1 construct: human TRIM25
Nature of the experiment: pull-down. The conditions noted are these: both partners purified.

T1 sequence (Q14258 whole entry): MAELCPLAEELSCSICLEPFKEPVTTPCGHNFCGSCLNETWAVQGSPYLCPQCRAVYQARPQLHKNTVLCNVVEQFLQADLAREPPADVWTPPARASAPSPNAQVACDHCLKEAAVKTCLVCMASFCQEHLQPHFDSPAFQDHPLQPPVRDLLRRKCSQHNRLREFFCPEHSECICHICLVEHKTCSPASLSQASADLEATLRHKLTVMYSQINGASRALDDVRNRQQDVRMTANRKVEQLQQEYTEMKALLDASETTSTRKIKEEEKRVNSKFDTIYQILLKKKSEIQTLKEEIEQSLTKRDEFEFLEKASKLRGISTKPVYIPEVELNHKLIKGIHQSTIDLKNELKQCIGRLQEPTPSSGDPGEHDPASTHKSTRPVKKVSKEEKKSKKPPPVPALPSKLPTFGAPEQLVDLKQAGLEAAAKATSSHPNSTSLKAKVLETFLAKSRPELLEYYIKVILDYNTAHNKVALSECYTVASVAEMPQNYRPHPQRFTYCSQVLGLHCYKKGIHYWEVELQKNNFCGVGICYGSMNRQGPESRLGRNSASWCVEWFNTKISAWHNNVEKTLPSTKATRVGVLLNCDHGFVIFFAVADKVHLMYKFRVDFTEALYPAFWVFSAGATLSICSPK

B1: Glutathione-S-transferase (GST)-NS1 fusion protein (PR8) (natural protein)
chain: MDPNTVSSFQVDCFLWHVRKRVADQELGDAPFLDRLRRDQKSLRGRGSTLGLDIETATRAGKQIVERILKEESDEALKMTMASVPASRYLTDMTLEEMSRDWSMLIPKQKVAGPLCIRMDQAIMDKNIILKANFSVIFDRLETLILLRAFTEEGAIVGEISPLPSLPGHTAEDVKNAVGVLIGGLEWNDNTVRVSETLQRFAWRSSNENGRPPLTPKQKREMAGTIRSEV
notes: source: bacteria, purified
In the case of B1, the binding result is reported as “binds”.

The values are drawn from publication PMC3510253 (PLoS Pathogens, 2012).
